The text below walks through data of patent US20100166775A1 (ACTIVE BIOTECH, published 2010).

To fix the notation:
B6: recombinant human S100A9 (ligand)
chain: MTCKMSQLERNIETIINTFHQYSVKLGHPDTLNQGEFKELVRKDLQNFLKKENKNEKVIEHIMEDLDTNADKQLSFEEFIMLMARLTWASHEKMHEGDEGPGHHHKPGLGEGTP
notes: Concentrations are based on the homodimeric molecular weight; Assays were run with Ca2+ and Zn2+; also called hS100A9; rhS100A9

The target of assay [1] is T1, recombinant human RAGE/Fc chimera (R&D Systems cat. No. 1145-RG) (human, UniProt Q15109 23-344).
T1 construct: Disulfide-linked homodimer expressed in NS0 cells, glycosylated and amine-coupled to a CM5 chip; also called rhRAGE-Fc; immobilized RAGE; not shown: peptide linker between RAGE and Fc; Fc region of human IgG1
Nature of the assay: SPR (Biacore), 200 nM protein over amine-coupled RAGE/Fc, 1 mM CaCl2 and 10 µM ZnCl2; Req or response at late association, not corrected for mass. The protocol:
(§1) Binding analysis was performed using the “surface plasmon resonance” (SPR) technology with a Biacore 3000™ system. This technology allows analysis of an interaction between proteins and small molecules in a real-time and label-free manner. A protein or low-molecular weight compound is injected over a surface (a CM5 sensor chip) with a covalently coupled ligand and the signal produced, expressed as resonance units (RU), is directly proportional to the number and mass of the molecule interacting with the ligand on the surface. Immobilization, regeneration scouting, surface performance tests and binding studies were conducted basically according to the instructions by the manufacturer. Kinetic evaluation of binding data was carried using the BIAevaluation Software Version 3.2 (Biacore AB). Optimization of conditions for immobilization and binding analysis is carried out for each interaction to be studied.
(§2) Recombinant human RAGE was obtained from R&D Systems (cat. No. 1145-RG) as a fusion protein of the extracellular domain of RAGE, comprising a.a. 1-344, and the Fc region of human IgG₁ via a peptide linker. The chimeric protein was expressed in the mouse myleoma cell line NSO as a disulfide-linked homo-dimeric protein with a calculated molecular mass of 61 kDa. Prior to covalent coupling to the sensor chip, buffer was changed to a standard Biacore buffer (10 mM Hepes, 0.15 M NaCl, pH 7.4, containing 0.005% v/v Surfactant P20; HBS-P) using Fast Protein Desalting Micro-Spin Columns (Pierce). RAGE was diluted in an immobilization buffer shown to give sufficient pre-concentration and then covalently coupled using the “Aim at immobilization level” function in the Biacore Wizard to obtain various coupling densities. Activity of immobilized RAGE was tested by injecting a specific anti-human RAGE monoclonal antibody over the surface.

Assay [2] concerns the target T1, recombinant human RAGE/Fc chimera (R&D …). Nature of the assay: SPR (Biacore), 200 nM protein over amine-coupled RAGE/Fc, 1 mM CaCl2 and 10 µM ZnCl2. As for the experimental part: as §1, §2
Assay [3] has the same target. Nature of the assay: placeholder.
The target of assay [4] is B6. Nature of the assay: SPR competition: 100 nM S100A9 pre-incubated with 12.5-500 nM 43/8, injected over immobilized amino-linked Compound A (a small molecule); log-logit plot. The protocol:
The assay was performed by coating amino-linked Compound A on a CM5 chip using standard amine coupling.

In assay [5] the target is B6. Nature of the assay: SPR competition: 100 nM human S100A9 pre-incubated with 0-400 nM 43/8 or 1C10, injected over immobilized 43/8; reference 1C10. As for the experimental part:
Incubated samples were then injected for 3 min at a flow rate of 30 μl/min (1; association phase) followed by injection of sample buffer (2; dissociation phase). Responses were calculated at late association phase.

Assay [6] concerns the target B6. In words: SPR competition: 100 nM S100A9 pre-incubated with 12.5-500 nM 43/8, injected over immobilized TLR4/MD-2; log-logit plot. As for the experimental part: (§3) Binding data were transformed to a log-logit plot for calculation of IC₅₀ value.
The assay was performed by coating human TLR4/MD-2 complex on a CM5 chip at a density of ˜3000 RU using standard amine coupling.

Assay [7] concerns the target B6. In words: SPR competition: 100 nM S100A9 pre-incubated with 12.5-500 nM 43/8, injected over immobilized RAGE-Fc; log-logit plot. The protocol:
as §3
The assay was performed by coating human RAGE on a standard CM5 chip at high density (3000 RU) using standard amine coupling.

T1 sequence (Q15109 23-344, change not shown): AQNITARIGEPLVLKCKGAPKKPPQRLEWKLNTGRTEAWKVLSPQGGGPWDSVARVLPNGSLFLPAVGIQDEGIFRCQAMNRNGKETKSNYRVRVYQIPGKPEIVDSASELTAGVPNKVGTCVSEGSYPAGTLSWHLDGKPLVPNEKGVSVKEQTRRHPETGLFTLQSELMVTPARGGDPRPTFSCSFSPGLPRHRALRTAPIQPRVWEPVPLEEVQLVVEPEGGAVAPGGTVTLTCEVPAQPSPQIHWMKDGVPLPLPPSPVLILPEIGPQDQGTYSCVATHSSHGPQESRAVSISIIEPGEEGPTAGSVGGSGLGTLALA

B1: murine S100A8/S100A9 complex (other)
chain 1: PSELEKALSNLIDVYHNYSNIQGNHHALYKNDFKKMVTTECPQFVQNINIENLFRELDINSDNAINFEEFLAMVIKVGVASHKDSHKE
chain 2: ANKAPSQMERSITTIIDTFHQYSRKEGHPDTLSKKEFRQMVEAQLATFMKKEKRNEALINDIMEDLDTNQDNQLSFEECMMLMAKLIFACHEKLHENNPRGHGHSHGKGCGK
notes: Heterodimer; also called murine S100A8/A9; murine complex S100A8/A9
In the case of B1, the binding result in assay [1] was “binds”.

B2: murine S100A9 (other, UniProt P31725 2-113, looked up)
chain: ANKAPSQMERSITTIIDTFHQYSRKEGHPDTLSKKEFRQMVEAQLATFMKKEKRNEALINDIMEDLDTNQDNQLSFEECMMLMAKLIFACHEKLHENNPRGHGHSHGKGCGK
notes: Concentration is based on the homodimeric molecular weight
As for B2, the binding result in assay [2] is listed as “no binding (tested: 200 nM)”.

B3: murine S100A8 (other, UniProt P27005 2-89, looked up)
chain: PSELEKALSNLIDVYHNYSNIQGNHHALYKNDFKKMVTTECPQFVQNINIENLFRELDINSDNAINFEEFLAMVIKVGVASHKDSHKE
notes: as for B2
As for B3, the binding result in assay [2] is “no binding (tested: 200 nM)”.

B4: human S100A8/S100A9 complex (other)
chain 1: MLTELEKALNSIIDVYHKYSLIKGNFHAVYRDDLKKLLETECPQYIRKKGADVWFKELDINTDGAVNFQEFLILVIKMGVAAHKKSHEESHKE
chain 2: MTCKMSQLERNIETIINTFHQYSVKLGHPDTLNQGEFKELVRKDLQNFLKKENKNEKVIEHIMEDLDTNADKQLSFEEFIMLMARLTWASHEKMHEGDEGPGHHHKPGLGEGTP
notes: Heterodimer; also called S100A8/A9; S100A8/9
On to B4, for which the binding result in assay [1] is recorded as “binds”.

B5: human S100A8 (other, UniProt P05109 1-93, looked up)
chain: MLTELEKALNSIIDVYHKYSLIKGNFHAVYRDDLKKLLETECPQYIRKKGADVWFKELDINTDGAVNFQEFLILVIKMGVAAHKKSHEESHKE
notes: The source is 'produced recombinantly ... or obtained from elsewhere'
Consider B5, for which, in assay [2], the binding result was “no binding (tested: 200 nM)”.

As to B6, the “fold higher binding than the next group of RAGE binders (AnxII, S100A12, S100A8/9)” value in assay [3] came out at 10 fold.

B7: S100B (other, human, UniProt P04271 1-92, looked up)
chain: MSELEKAMVALIDVFHQYSGREGDKHKLKKSELKELINNELSHFLEEIKEQEVVDKVMETLDNDGDGECDFQEFMAFVAMVTTACHEFFEHE
notes: also called S100β; recombinant human S100β
With B7, the binding result in assay [2] is on record as “no binding (tested: 200 nM)”.

B8: hS100A11 (other, human, UniProt P31949 1-105, looked up)
S100A11: MAKISSPTETERCIESLIAVFQKYAGKDGYNYTLSKTEFLSFMNTELAAFTKNQKDPGVLDRMMKKLDTNSDGQLDFSEFLNLIGGLAMACHDSFLKAVPSQKRT
notes: recombinant; also called recombinant human S100A11 (ProSpec TechnoGene)
For B8, the binding result in assay [2] is on record as “no binding (tested: 200 nM)”.

B9: anti-S100A9 monoclonal antibody 43/8 (antibody, V domains shown)
VH: PELVKSGASVKISCKASGYSFTDYNINWVKQSNGKSLEWIGLINPNYGTTFYNQKFKGKATLTVDQSSSTAYMQLNSLTSEDSAVYYCARETLLLRYFDYWGQGTTLTVSS
VL: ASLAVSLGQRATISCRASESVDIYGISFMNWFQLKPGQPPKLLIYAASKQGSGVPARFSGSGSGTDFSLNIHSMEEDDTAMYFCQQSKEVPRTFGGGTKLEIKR
notes: Mouse monoclonal from an S100A9-null C57BL/6 mouse; also called anti-S100A9 mAb 43/8; mAb 43/8
Regarding B9, the figures for the IC50 with recombinant human S100A9 [4], with recombinant human S100A9 [6] and with recombinant human S100A9 [7] were 120 nM, 27 nM and 34 nM, respectively. In the assay with recombinant human S100A9 [5], the “fold higher inhibition of S100A9 binding to immobilized 43/8 than for antibody 1C10” value was > 10 fold.

B10: human S100A12 (other, UniProt P80511 2-92, looked up)
chain: TKLEEHLEGIVNIFHQYSVRKGHFDTLSKGELKQLLTKELANTIKNIKDKAVIDEIFQGLDANQDEQVDFQEFISLVAIALKAAHYHTHKE
notes: also called S100Al2
Take B10: the binding result in assay [1] is given as “binds”.

B11: S100A1 (other, human, UniProt P23297 1-94, looked up)
chain: MGSELETAMETLINVFHAHSGKEGDKYKLSKKELKELLQTELSGFLDAQKDVDAVDKVMKELDENGDGEVDFQEYVVLVAALTVACNNFFWENS
notes: also called recombinant human S100A1
For the molecule B11, the binding result in assay [2] was “no binding (tested: 200 nM)”.
